Measurements taken from US20170008955A1 (CNJ, published 2017).

How the values were obtained:
cSNK:BSA conjugate [1] = target: T1, cSNK:BSA conjugate (bovine, head-to-tail cyclized; conjugated to BSA carrier); assay: BLI 2:1 fit, site 2 (kon2); 6.25 nM row
T1 construct: also called BSA-cSNK
Method: (§1) Biolayer interferometry (Octet […], ForteBio) was used to qualitatively/quantitatively assess the interactions between humanized versions of 5E3 and cSNK:BSA conjugate. […] MAbs were loaded onto sensors and then washed in PBST. Each sensor was associated with one of several cSNK:BSA standards (100 nM to 0 nM) and then washed in PBST. Data was processed statistically using ForteBio Data Analysis software to determine the strength of antigen-antibody binding (KD). For each mAb analyzed, a 2:1 model provided the “best fit”.

cSNK:BSA conjugate [2] = target: T1, cSNK:BSA conjugate; assay: BLI 2:1 fit, site 1; 6.25 nM row
Method: as §1

cSNK:BSA conjugate [3] = target: T1, cSNK:BSA conjugate; assay: BLI 2:1 fit, site 1; 25 nM row
Method: as §1

cSNK:BSA conjugate [4] = target: T1, cSNK:BSA conjugate; assay: BLI (Octet), 1:1 model, BSA-cSNK
Method: Biolayer interferometry (Octet Red92, ForteBio) was used to qualitatively/quantitatively assess the interactions between humanized 5E3 and Δ5E3 mAbs to the cSNK:BSA conjugate. […] MAbs were loaded onto sensors and then washed in PBST. Each sensor was associated with one of several cSNK:BSA standards (100 nM to 0 nM) and then washed in PBST. Data was processed statistically using ForteBio Data Analysis software to determine the strength of antigen-antibody binding (KD). For each mAb analyzed, a 1:1 model provided the “best fit”.

cSNK:BSA conjugate [5] = target: T1, cSNK:BSA conjugate; assay: BLI 2:1 fit, site 2 (KD2); 6.25 nM row
Method: as §1

cSNK:BSA conjugate [6] = target: T1, cSNK:BSA conjugate; assay: BLI 2:1 fit, site 1; 3.13 nM row
Method: as §1

cSNK:BSA conjugate [7] = target: T1, cSNK:BSA conjugate; assay: BLI 2:1 fit, site 2 (kdis2); 6.25 nM row
Method: as §1

cSNK:BSA conjugate [8] = target: T1, cSNK:BSA conjugate; assay: BLI 2:1 fit, site 2 (kon2); 3.13 nM row
Method: as §1

cSNK:BSA conjugate [9] = target: T1, cSNK:BSA conjugate; assay: BLI (Octet RED96), 2:1 kinetics, KD1, summary table
Method: as §1
(§2) Table 7 summarizes the affinity constants of humanized 5E3 IgG1, IgG2 and IgG4 constructs. The KD ranges were determined using 2:1 kinetics of binding of analyte (BSA-cSNK) in solution to two different binding sites on the surface (immobilized bivalent, monospecific 5E3) in comparison to murine 5E3 using biolayer interferometry (Octet RED96).

cSNK:BSA conjugate [10] = target: T1, cSNK:BSA conjugate; assay: BLI 2:1 fit, site 2 (KD2); 50 nM row
Method: as §1

cSNK:BSA conjugate [11] = target: T1, cSNK:BSA conjugate; assay: BLI 2:1 fit, site 2 (kon2); 50 nM row
Method: as §1

cSNK:BSA conjugate [12] = target: T1, cSNK:BSA conjugate; assay: BLI 2:1 fit, site 2 (kon2); 100 nM row
Method: as §1

cSNK:BSA conjugate [13] = target: T1, cSNK:BSA conjugate; assay: BLI 2:1 fit, site 2 (kdis2); 3.13 nM row
Method: as §1

cSNK:BSA conjugate [14] = target: T1, cSNK:BSA conjugate; assay: BLI 2:1 fit, site 2 (KD2); 25 nM row
Method: as §1

cSNK:BSA conjugate [15] = target: T1, cSNK:BSA conjugate; assay: BLI 2:1 fit, site 2 (KD2); 12.5 nM row
Method: as §1

cSNK:BSA conjugate [16] = target: T1, cSNK:BSA conjugate; assay: BLI 2:1 fit, site 2 (kon2); 12.5 nM row
Method: as §1

cSNK:BSA conjugate [17] = target: T1, cSNK:BSA conjugate; assay: BLI 2:1 fit, site 1; 100 nM row
Method: as §1

cSNK:BSA conjugate [18] = target: T1, cSNK:BSA conjugate; assay: BLI 2:1 fit, site 2 (KD2); 100 nM row
Method: as §1

cSNK:BSA conjugate [19] = target: T1, cSNK:BSA conjugate; assay: BLI 2:1 fit, site 2 (kdis2); 25 nM row
Method: as §1

cSNK:BSA conjugate [20] = target: T1, cSNK:BSA conjugate; assay: BLI (Octet RED96), 2:1 kinetics, KD2, summary table
Method: as §1, §2

cSNK:BSA conjugate [21] = target: T1, cSNK:BSA conjugate; assay: BLI 2:1 fit, site 2 (kdis2); 1.56 nM row
Method: as §1

cSNK:BSA conjugate [22] = target: T1, cSNK:BSA conjugate; assay: BLI 2:1 fit, site 2 (kdis2); 50 nM row
Method: as §1

cSNK:BSA conjugate [23] = target: T1, cSNK:BSA conjugate; assay: BLI 2:1 fit, site 2 (kdis2); 12.5 nM row
Method: as §1

cSNK:BSA conjugate [24] = target: T1, cSNK:BSA conjugate; assay: BLI 2:1 fit, site 2 (kdis2); 100 nM row
Method: as §1

cSNK:BSA conjugate [25] = target: T1, cSNK:BSA conjugate; assay: BLI 2:1 fit, site 2 (KD2); 3.13 nM row
Method: as §1

T1 sequence (P02769 25-607 limits assumed): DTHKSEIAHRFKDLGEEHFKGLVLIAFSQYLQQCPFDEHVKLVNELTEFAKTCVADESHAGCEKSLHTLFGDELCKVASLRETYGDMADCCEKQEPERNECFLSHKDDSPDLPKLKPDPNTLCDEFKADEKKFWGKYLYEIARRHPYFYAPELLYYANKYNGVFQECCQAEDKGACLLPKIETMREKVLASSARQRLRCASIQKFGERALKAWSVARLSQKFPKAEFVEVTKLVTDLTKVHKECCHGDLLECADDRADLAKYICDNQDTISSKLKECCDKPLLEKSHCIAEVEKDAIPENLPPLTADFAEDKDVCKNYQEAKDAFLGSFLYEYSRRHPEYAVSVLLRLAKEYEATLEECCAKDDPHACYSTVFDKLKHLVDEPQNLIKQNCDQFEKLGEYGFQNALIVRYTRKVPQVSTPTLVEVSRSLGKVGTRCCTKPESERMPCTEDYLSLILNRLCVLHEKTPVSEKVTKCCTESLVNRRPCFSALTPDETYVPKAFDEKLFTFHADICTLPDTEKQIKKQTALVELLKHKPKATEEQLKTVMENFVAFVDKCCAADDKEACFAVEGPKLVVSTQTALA

B1: hu5E3-IgG4 (antibody, V domains shown)
VH: QVQLQQSGPEVKKPGASVKISCKASGYIFTSYYIQWVIHAPGQGLEWIGWIYPGNVNTKYNEKFKGKATLTADKSSSTAYMELSSLTSEDTAVYFCARMDYEAHYWGQGTTVTVSS
VL: DIQMTQSPSSLSASVGDRVTITCRASQEISGYLTWLQQKPEGAIKRLIYAASTLDSGVPKRFSGSRSGSDYSLTISSLQPEDFATYNCLQYANYPRTFGGGTKLEIK
notes: human IgG4/kappa; also called humanized 5E3 IgG4
cSNK:BSA conjugate [1]
  kon: 7.52e+06 M⁻¹ s⁻¹
cSNK:BSA conjugate [2]
  Kd: 0.633 nM
  koff: 0.00055 s⁻¹
  kon: 868000 M⁻¹ s⁻¹
cSNK:BSA conjugate [3]
  Kd: 0.633 nM
  koff: 0.00055 s⁻¹
  kon: 868000 M⁻¹ s⁻¹
cSNK:BSA conjugate [4]
  Kd: 1.31 nM
cSNK:BSA conjugate [5]
  Kd: 3.04 nM
cSNK:BSA conjugate [6]
  Kd: 0.633 nM
  koff: 0.00055 s⁻¹
  kon: 868000 M⁻¹ s⁻¹
cSNK:BSA conjugate [7]
  koff: 0.0229 s⁻¹
cSNK:BSA conjugate [8]
  kon: 7.52e+06 M⁻¹ s⁻¹
cSNK:BSA conjugate [9]
  Kd: 0.633 nM
cSNK:BSA conjugate [10]
  Kd: 3.04 nM
cSNK:BSA conjugate [11]
  kon: 7.52e+06 M⁻¹ s⁻¹
cSNK:BSA conjugate [12]
  kon: 7.52e+06 M⁻¹ s⁻¹
cSNK:BSA conjugate [13]
  koff: 0.0229 s⁻¹
cSNK:BSA conjugate [14]
  Kd: 3.04 nM
cSNK:BSA conjugate [15]
  Kd: 3.04 nM
cSNK:BSA conjugate [16]
  kon: 7.52e+06 M⁻¹ s⁻¹
cSNK:BSA conjugate [17]
  Kd: 0.633 nM
  koff: 0.00055 s⁻¹
  kon: 868000 M⁻¹ s⁻¹
cSNK:BSA conjugate [18]
  Kd: 3.04 nM
cSNK:BSA conjugate [19]
  koff: 0.0229 s⁻¹
cSNK:BSA conjugate [20]
  Kd: 0.304 nM
cSNK:BSA conjugate [21]
  koff: 0.0229 s⁻¹
cSNK:BSA conjugate [22]
  koff: 0.0229 s⁻¹
cSNK:BSA conjugate [23]
  koff: 0.0229 s⁻¹
cSNK:BSA conjugate [24]
  koff: 0.0229 s⁻¹
cSNK:BSA conjugate [25]
  Kd: 3.04 nM
